{"source": "patent US10660972B2", "about": "“Methods for coupling targeting peptides onto recombinant lysosomal enzymes for improved treatments of lysosomal storage diseases” (AMICUS THERAPEUTICS, INC., priority 2011, dated 2020)", "key": {"Pompe disease": {"test_system": "Pompe disease", "settings": "40 mg/kg every other week; cited from earlier work"}, "[1]": {"test": "Solubility and stability of protein preparations in acidic buffer", "type": "physicochemical", "description": "(§1) The high-mannose type N-glycans on rhGAA is problematic because it is believed that these carbohydrates cause the protein to be rapidly cleared from the circulation via macrophage and splenic mannose receptors. […] Deglycosylation of rhGAA can be performed after the enzyme is modified with S-Hynic and purified (via size exclusion chromatography or dialysis to remove excess crosslinker). This strategy allows for complete deglycosylation of rhGAA over 1-5 days using EndoF or EndoH without affecting enzyme activity. The deglycosylated hydrazide-modified rhGAA is then conjugated to PEG4-benzaldehyde-modified IGF-2 peptides. Alternatively, rhGAA deglycosylation can be performed concurrently during the conjugation of PEG4-benzaldehyde-modified IGF-2 peptide to hydrazide-modified rhGAA using high concentrations of EndoF or EndoH. Deglycosylated, IGF2 peptide-conjugated rhGAA is then purified by gel filtration chromatography or dialysis to remove excess […] IGF-2 peptides and stored in acidic pH buffer (50 mM sodium phosphate, pH 6.2/100 mM NaCl/0.05% Polysorbate-80). The ideal method to remove high-mannose N-glycans from yeast-derived rhGAA would be to co-express EndoH with the lysosomal enzyme for deglycoylation in vivo prior to protein purification of rhGAA. […]"}, "[2]": {"test_system": "lysosomal enzyme activity (rhGAA, I2S)", "test": "Enzyme activity of lysosomal enzyme after conjugation or deglycosylation", "type": "biochemical, human", "description": "as §1, with “Polysorbate-80).” for “Polysorbate-80). The ideal method to remove high-mannose N-glycans from yeast-derived rhGAA would be to co-express EndoH with the lysosomal enzyme for deglycoylation in vivo prior to protein purification of rhGAA.”\nTo assess the functional effects of IGF2 peptide for the cellular uptake of exogenous lysosomal enzymes, the internalization of IGF2-conjugated rbGAA (vIGF2-rhGAA) was evaluated in L6 rat skeletal muscle myoblasts. […]"}, "IGF-2/CI-MPR": {"target": "IGF-2/CI-MPR (Homo sapiens, UniProt P11717)", "sequence (P11717 41-2491)": "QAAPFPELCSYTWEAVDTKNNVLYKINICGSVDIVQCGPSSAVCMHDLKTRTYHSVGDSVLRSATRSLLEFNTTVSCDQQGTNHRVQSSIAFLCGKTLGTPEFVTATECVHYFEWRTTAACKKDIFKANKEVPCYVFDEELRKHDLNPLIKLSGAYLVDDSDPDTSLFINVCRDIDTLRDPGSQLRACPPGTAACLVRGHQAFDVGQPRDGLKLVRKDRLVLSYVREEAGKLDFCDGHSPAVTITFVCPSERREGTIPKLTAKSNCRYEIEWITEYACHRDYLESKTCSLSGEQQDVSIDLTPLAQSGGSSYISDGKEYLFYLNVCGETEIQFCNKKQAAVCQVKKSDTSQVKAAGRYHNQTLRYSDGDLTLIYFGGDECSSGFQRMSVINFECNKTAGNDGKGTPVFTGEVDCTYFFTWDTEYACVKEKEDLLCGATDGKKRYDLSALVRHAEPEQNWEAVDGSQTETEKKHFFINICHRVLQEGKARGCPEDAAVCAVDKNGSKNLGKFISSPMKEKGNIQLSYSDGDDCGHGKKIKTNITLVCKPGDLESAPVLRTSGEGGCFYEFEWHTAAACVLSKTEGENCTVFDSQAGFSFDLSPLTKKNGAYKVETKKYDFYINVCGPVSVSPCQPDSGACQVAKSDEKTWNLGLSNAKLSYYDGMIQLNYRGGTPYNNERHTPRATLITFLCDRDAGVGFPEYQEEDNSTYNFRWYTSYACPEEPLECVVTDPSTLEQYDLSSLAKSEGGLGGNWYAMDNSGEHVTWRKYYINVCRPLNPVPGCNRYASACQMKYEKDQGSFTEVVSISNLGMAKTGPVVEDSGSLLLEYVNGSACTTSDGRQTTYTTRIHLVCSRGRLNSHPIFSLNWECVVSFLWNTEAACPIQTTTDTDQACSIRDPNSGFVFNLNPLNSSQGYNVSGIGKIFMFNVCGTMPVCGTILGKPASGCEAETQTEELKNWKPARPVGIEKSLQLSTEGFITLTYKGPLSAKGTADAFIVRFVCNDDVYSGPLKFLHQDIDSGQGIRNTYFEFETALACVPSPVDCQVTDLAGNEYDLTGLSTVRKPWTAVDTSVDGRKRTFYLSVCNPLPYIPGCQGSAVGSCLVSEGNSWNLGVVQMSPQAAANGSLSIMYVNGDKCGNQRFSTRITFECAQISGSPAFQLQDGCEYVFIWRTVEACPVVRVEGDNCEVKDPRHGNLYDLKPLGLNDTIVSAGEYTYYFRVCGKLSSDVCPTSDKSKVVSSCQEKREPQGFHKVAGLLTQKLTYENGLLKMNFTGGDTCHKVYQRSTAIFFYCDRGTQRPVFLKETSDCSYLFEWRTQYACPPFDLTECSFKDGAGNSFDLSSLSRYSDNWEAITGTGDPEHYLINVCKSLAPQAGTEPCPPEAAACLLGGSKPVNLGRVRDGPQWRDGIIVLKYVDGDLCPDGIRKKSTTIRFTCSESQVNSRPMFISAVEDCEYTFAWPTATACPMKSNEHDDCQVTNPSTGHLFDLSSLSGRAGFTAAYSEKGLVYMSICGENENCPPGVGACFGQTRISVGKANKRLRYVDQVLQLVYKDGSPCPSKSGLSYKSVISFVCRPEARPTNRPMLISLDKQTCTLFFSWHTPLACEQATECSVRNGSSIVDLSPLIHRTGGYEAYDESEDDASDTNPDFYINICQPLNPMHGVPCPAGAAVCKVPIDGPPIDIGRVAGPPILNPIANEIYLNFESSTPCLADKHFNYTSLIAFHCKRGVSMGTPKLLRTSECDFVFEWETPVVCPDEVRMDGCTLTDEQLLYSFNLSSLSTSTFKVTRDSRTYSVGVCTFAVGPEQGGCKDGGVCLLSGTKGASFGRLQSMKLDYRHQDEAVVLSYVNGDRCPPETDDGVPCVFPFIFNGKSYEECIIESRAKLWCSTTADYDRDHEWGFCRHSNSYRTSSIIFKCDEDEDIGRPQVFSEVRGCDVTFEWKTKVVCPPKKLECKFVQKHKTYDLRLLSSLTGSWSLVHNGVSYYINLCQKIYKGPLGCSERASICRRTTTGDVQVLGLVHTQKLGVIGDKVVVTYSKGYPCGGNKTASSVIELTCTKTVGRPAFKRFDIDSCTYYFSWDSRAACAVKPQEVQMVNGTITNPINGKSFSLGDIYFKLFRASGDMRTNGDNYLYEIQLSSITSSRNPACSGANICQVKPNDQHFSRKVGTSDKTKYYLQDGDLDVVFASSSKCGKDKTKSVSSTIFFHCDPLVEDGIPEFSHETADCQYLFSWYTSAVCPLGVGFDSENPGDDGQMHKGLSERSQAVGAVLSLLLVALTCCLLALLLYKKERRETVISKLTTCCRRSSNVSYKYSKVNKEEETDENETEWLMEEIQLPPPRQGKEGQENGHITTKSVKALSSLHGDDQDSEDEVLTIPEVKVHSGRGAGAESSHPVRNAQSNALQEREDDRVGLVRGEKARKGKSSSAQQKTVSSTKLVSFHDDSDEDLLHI", "settings": "cited from earlier work; for Kd: ligand affinity for IGF-2/CI-MPR, read-out: Binding Affinity (Apparent Kd; nM)"}, "[3]": {"test_system": "serum IGF binding proteins (IGFBPs)", "test": "Binding to serum IGF binding proteins, inferred from uptake in serum-containing medium", "type": "cell-based", "settings": "inferred from internalization in medium with 10% FBS", "procedure": "To assess the functional effects of IGF2 peptide for the cellular uptake of exogenous lysosomal enzymes, the internalization of IGF2-conjugated rbGAA (vIGF2-rhGAA) was evaluated in L6 rat skeletal muscle myoblasts. Briefly, L6 myoblasts were expanded in T-75 flasks to confluence in DMEM medium containing 10% fetal bovine serum (FBS) at 37 C and a 5% CO2 environment. The cells were harvested via trypsin/EDTA and plated in 6-well tissue culture plates at a cell density of 3×10^5 cells per well and incubated in DMEM/10% […] medium. Two hours prior to the addition of lysosomal enzymes, the spent DMEM 10% FBS medium was replaced with 2.5 ml uptake medium (Ham's F-12/10% FBS/2 mM PIPES, pH 6.7). Unconjugated rhGAA and vIGF2-rhGAA were diluted to 0.5 mg/ml with 50 mM sodium phosphate, pH 6.5/100 mM NaCl/0.05%>Polysorbate-80 and sterilized through a 0.2 μm filter spin device (Costar). Unconjugated rhGAA was added to individual wells at final protein concentrations of 10-200 nM while vIGF2-rhGAA was added at 2-25 nM. To ensure that all wells had the same volume and correct protein concentration, 50 mM sodium phosphate, pH 6.5/100 mM NaCl/0.05% Polysorbate-80 buffer was added so that the total volume of enzyme and buffer was 0.2 ml for each sample."}, "[4]": {"settings": "human, in vivo; cited from earlier work"}, "IGF-1 receptor": {"target": "IGF-1 receptor (Homo sapiens, UniProt P08069)", "settings": "compared to the IGF-2/CI-MPR; cited from earlier work"}, "insulin receptor": {"target": "insulin receptor (Homo sapiens, UniProt P06213)", "settings": "compared to the IGF-2/CI-MPR; cited from earlier work"}}, "note": "Several values for one entry are separate records, joined by “and”; a condition that tells them apart may be missing. Equal entries are not always repeated.", "data": [{"compound": "Myozyme: recombinant human acid α-glucosidase, rhGAA; Genzyme Corp.", "values": [{"measurement": "clinical effectiveness in Pompe disease", "setting": "Pompe disease", "result": "only moderately effective"}]}, {"compound": "rhGAA: Recombinant human acid α-glucosidase", "values": [{"measurement": "solubility after removal of N-glycans", "setting": "[1]; deglycosylated with EndoF or EndoH (data not shown)", "result": "remain soluble"}, {"measurement": "effect of chemical conjugation of variant IGF2 peptide on enzyme activity", "setting": "[2]; after conjugation of variant IGF2 peptide (data not shown)", "result": "did not affect enzyme activity"}, {"measurement": "enzyme activity after removal of N-glycans", "setting": "[2]; deglycosylated with EndoF or EndoH, native conditions (data not shown)", "result": "completely active"}]}, {"compound": "[Leu27] hIGF-2: human IGF-2 with substitution of leucine for tyrosine at position 27", "values": [{"measurement": "Kd", "setting": "IGF-2/CI-MPR", "result": "0.05 nM and 0.06 nM"}]}, {"compound": "O=C[C@@H](O)[C@@H](O)[C@H](O)[C@H](O)COP(=O)(O)O", "note": "[free M6P, mannose 6-phosphate]", "values": [{"measurement": "Kd", "setting": "IGF-2/CI-MPR", "result": 7000, "unit": "nM"}]}, {"compound": "[del(1-4), Arg6, Leu27, Arg65] IGF-2 [variant IGF2 peptide]", "values": [{"measurement": "binding affinity to serum IGF binding proteins (IGFBPs)", "setting": "[3]", "result": "low binding affinity"}, {"measurement": "stability of conjugated peptide in acidic buffers", "setting": "[1]; acidic buffers required for maintaining lysosomal enzyme activities", "result": "stable and maintains proper protein structure"}]}, {"compound": "WT hIGF-2: wildtype human insulin-like growth factor 2 peptide", "values": [{"measurement": "Kd", "setting": "IGF-2/CI-MPR", "result": "0.03 to 0.2", "unit": "nM"}, {"measurement": "fold higher affinity for IGF-2/CI-MPR than mono-M6P N-glycan", "setting": "IGF-2/CI-MPR; relative to mono-M6P N-glycan", "result": "approximately 230,000 fold"}, {"measurement": "safety in clinical trials", "setting": "[4]", "result": "shown to be safe"}, {"measurement": "fold lower affinity for IGF-1 receptor compared to IGF-2/CI-MPR", "setting": "IGF-1 receptor", "result": "~230", "unit": "fold"}, {"measurement": "fold lower affinity for insulin receptor compared to IGF-2/CI-MPR", "setting": "insulin receptor", "result": "~100", "unit": "fold"}]}]}
